Test results: patent US20090117593A1, “T. Cruzi-derived neurotrophic agents and methods of use therefor” (Tufts University, priority 2006, published 2009)

Key:
PC12 cells = assay: Protection of PC12 cells from apoptosis induced by trophic factor withdrawal (DAPI, TUNEL); format: cell-based; settings: serum-free RPMI-1640/0.2% BSA, 17 hours, DAPI or TUNEL
Procedure, shortened: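 PC12 cells, washed and plated at 2×10^5/ml in serum-free RPMI/0.2% BSA on collagen, with or without test agents; apoptosis scored by DAPI nuclear staining (300–400 cells) or TUNEL. Protection = 100% − (apoptosis with agent ÷ apoptosis in RPMI alone ×100%); Wortmannin/LY294002 added after 24 h, DAPI read 24 h later.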

Bcl-2 = Bcl-2 gene expression in PC12 cells by RT-PCR; format: cell-based, rat; settings: TS 2.5 ng/ml, CNTF 50 ng/ml, alone or combined, 17 hours
Description: Total RNA was extracted from PC12 cells by the acid guanidinum isothiocyanate method (Chomchinski, P., Biotechniques, 15:532-535 (1993)) using TRI-reagent (Molecular Research Center, Inc.) cDNA synthesis was performed according to the instruction of the manufacturer (Gibco-BRL). Reverse transcription reactions were carried out for 50 minutes at 42° C. and were heated to 70° C. for 15 minutes to terminate the reaction using a MiniCycler (MJ Research). Samples were cooled to 4° C. and stored at −20° C. until use.
PCR reactions were performed in 50 μl containing 1.5 μl of template DNA (corresponding to cDNA synthesized from 100 ng of total RNA), 1×PCR buffer, 100 μM of deoxynucleotides, 2.5 mM MgCl2, 10 mM DTT, 10 μM of Bcl-2 primers, and 2 U of Taq DNA polymerase (Gibco-BRL). The synthetic DNA primers for the rat Bcl-2 were: 5′-[…]-3′ (SEQ ID NO:8) and 5′-[…]-3′ (SEQ ID NO:9) to give a PCR product of 566 bp. The sequences for synthetic GAPDH DNA primers (Wong, H. et al., Anal. Biochem., 223: 251-258 (1994)) were: 5′-[…]-3′ (SEQ ID NO:10) and 5′-[…]-3′ (SEQ ID NO:11) giving a PCR produce of 306 base pairs. […] Gels were analyzed by computerized densitometric scanning using Gel doc 1000 (Bio Rad) and Molecular Analyst Software, version 2.1.

B1: CNTF: human ciliary neurotrophic factor; recombinant human and rat CNTF (protein, UniProt P26441 1-200, looked up)
Ciliary neurotrophic factor: MAFTEHSPLTPHRRDLCSRSIWLARKIRSDLTALTESYVKHQGLNKNINLDSADGMPVASTDQWSELTEAERLQENLQAYRTFHVLLARLLEDQQVHFTPTEGDFHQAIHTLLLQVAAFAYQIEELMILLEYKIPRNEADGMPINVGDGGLFEKKLWGLKVLQELSQWTVRSIHDLRFISSHQTGIPARGSHYIANNKKM
protection of PC12 cells from apoptosis induced by trophic factor withdrawal (PC12 cells): produced little, if any, protection
bcl-2 mRNA expression in PC12 cells (Bcl-2): did not induce bcl-2 gene expression individually
